Numbered stars: 1 amine (or outer) side, 2 acyl side, 3 side chain; on linkers, the order of the positions; unused ones are H or OH. Bridge positions count the residues as written; N and C are the ends. Square brackets hold non-standard residues; d marks the D form. Side chains are listed from the residue outwards. Ends that are not written are not given here. Peptide text beside a SMILES is read from it. * marks the point of attachment. R6me = (R)-2-amino-2-methyloct-7-enoic acid, C=CCCCC[C@@](C)(N[*:1])C(=O)[*:2]; Nle(6-ylidene) = O=C([C@H](CCCC=[*:3])N[*:1])[*:2]; S7 = C[C@@](CCCCCC=[*:3])(N[*:1])C(=O)[*:2]; Gly(pent-4-enyl) = C=CCCC[C@H](N)C(=O)O; γGlu = O=C(O)[C@H](CCC(=O)[*:2])N[*:1]; Palmitoyl = CCCCCCCCCCCCCCCC(=O)*; S5 = C=CCCC[C@](C)(N)C(=O)O; Aib = CC(C)(N)C(=O)O
Columns and labels:
[1] = target: T1, human GCGR (Homo sapiens, UniProt P47871); test: cAMP activity assay, cells expressing human GCGR (HitHunter cAMP XS); assay type: cell-based; conditions: ratio of human GCGR EC50 to human GLP1R EC50
T1 construct: expressed in transfected cells; assay-ready frozen cells grown with Blasticidin and Hygromycin
Description: (§1) Activity of the peptides at the Glucagon receptor (GCGR) and GLP-1 receptor (GLP1R) was measured in a cAMP activity assay.
(§2) Peptides were dissolved in 100% DMSO and serially diluted to generate 10 point titrations. The peptide solutions were then transferred into 384-well assay plates (150 nL/well).
(§3) Assay ready frozen cells expressing human GLP1R or human GCGR were suspended in growth media consisting of DMEM medium (GIBCO), 10% FBS (GIBCO), 1x NEAA(GIBCO), 1x P/S (GIBCO), 10ug/ml Blasticidin (GIBCO) and 200 µg/mL Hygromycin (GIBCO). Cells were then diluted in assay buffer consisting of PBS (GIBCO), 7.5% BSA (Perkin Elmer), 100 µM RO 20-1724 (Sigma), with or without 20% human serum (MP Biomedical). The cell suspensions (15 µL) were then added to the assay plates containing the peptide solutions (30,000 cells/well for human GCGR; 10.000 cells/well for human GLP1R). The cells were incubated for 1 hour at room temperature in the dark. Production of cAMP was determined using HitHunter™ cAMPXS kits (DiscoverX) following manufacturer protocol. The plates were incubated for overnight at room temperature in the dark. Luminescence was measured using an EnVision Multilabel plate reader (Perkin Elmer). Native GLP-1 and Glucagon (Bachem) are used as control peptides. EC50 values were calculated using uses a 4 parameter logistic fit based on the Levenberg-Marquardt algorithm.

[2] = target: T2, human GLP1R (Homo sapiens, UniProt P43220); test: cAMP activity assay, cells expressing human GLP1R (HitHunter cAMP XS); assay type: cell-based; conditions: cAMP production, 1 hour at room temperature; assay buffer with or without 20% human serum (not stated which)
T2 construct: expressed in transfected cells; assay-ready frozen cells grown with Blasticidin and Hygromycin
Description: as §1, §2, §3

[3] = target: human Glucagon receptor (GCGR) (human, UniProt P47871); test: cell-based or functional assay
[4] = target: human GLP-1 receptor (GLP1R) (human, UniProt P43220); test: cell-based or functional assay

T2 sequence (P43220 24-463): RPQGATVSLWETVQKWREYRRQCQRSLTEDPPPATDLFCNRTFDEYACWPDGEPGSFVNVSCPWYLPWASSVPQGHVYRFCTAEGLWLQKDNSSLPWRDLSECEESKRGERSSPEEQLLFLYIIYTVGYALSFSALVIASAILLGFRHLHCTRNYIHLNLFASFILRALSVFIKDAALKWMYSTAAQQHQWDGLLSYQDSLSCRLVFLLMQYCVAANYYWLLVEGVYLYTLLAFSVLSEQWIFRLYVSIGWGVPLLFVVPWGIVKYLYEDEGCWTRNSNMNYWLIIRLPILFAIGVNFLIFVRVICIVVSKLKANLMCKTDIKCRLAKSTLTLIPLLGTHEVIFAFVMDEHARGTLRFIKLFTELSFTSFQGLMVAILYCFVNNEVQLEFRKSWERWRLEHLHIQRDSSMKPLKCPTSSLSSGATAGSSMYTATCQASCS
T1 sequence (P47871 26-477): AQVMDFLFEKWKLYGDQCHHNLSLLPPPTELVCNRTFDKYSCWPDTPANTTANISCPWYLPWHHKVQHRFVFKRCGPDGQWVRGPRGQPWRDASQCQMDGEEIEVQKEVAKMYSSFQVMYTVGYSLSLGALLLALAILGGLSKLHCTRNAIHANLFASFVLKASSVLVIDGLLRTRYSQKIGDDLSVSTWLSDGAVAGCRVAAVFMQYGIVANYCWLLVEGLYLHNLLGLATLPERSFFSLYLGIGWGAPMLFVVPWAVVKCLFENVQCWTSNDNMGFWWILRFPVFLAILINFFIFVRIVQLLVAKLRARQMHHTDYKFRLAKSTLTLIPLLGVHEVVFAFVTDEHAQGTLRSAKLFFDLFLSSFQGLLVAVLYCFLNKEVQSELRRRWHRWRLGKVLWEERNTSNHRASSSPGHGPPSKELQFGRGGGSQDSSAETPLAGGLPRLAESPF

| hGCGR/hGLP1R (hTone) [1] | EC50 [2] | GCGR EC50 human (cAMP activity assay) [3] | GLP1R EC50 human (cAMP activity assay) [4] | Molecule |
| --- | --- | --- | --- | --- |
|  |  | 2.15 nM | 2.79 nM | HXQGTFTSDKSKYLDERAAXDFVXWLLDT (as printed: HsQGTFTSDKSKYLDERAA*S5meDFV*S5meWLLDT-NH2; s = D-Serine (position 2); two *S5me (positions 20 and 24) cyclized to form a double bond containing ring; C-terminal amide) [peptide of SEQ ID NO: 19 (TP 558)] |
|  |  | 3.38 nM | 2.38 nM | HXQGTFTSDKSKYLDERAAXDFVXWLLDT (as printed: HsQGTFTSDKSKYLDERAA*S5HDFV*S5HWLLDT-NH2; s = D-Serine (position 2); two *S5H (positions 20 and 24) cyclized to form a double bond containing ring; C-terminal amide) [peptide of SEQ ID NO: 17 (TP 556)] |
|  |  | 4.25 nM | 0.13 nM | H[Aib]QGTFTSDKSKYLD[Aib]RAAQDFV[Gly(pent-4-enyl)]WLL[Gly(pent-4-enyl)]TK-NH2 (staple 24-28; not fully specified (residue 30); printed as HUQGTFTSDKSKYLDURAAQDFV*S5HWLL*S5HTKγE-NH2; also: Lys 30 conjugated by a gamma-glutamic acid (KγE)) [peptide of SEQ ID NO: 18 (TP 557)] |
|  |  | 0.48 nM | 0.18 nM | H[Aib]QGTFTSDK([γGlu-γGlu-Palmitoyl])SKYLD[Aib]RAAQDFV[Gly(pent-4-enyl)]WLL[Gly(pent-4-enyl)]TK-NH2 (staple 24-28; not fully specified (residue 30); printed as HUQGTFTSDK(γEγEC16)SKYLDURAAQDFV*S5HWLL*S5HTKγE-NH2; also: Lys 30 conjugated by a gamma-glutamic acid (KγE)) [peptide of SEQ ID NO: 16 (TP551)] |

Further lines, the molecule ahead of its results:

| Molecule | hGCGR/hGLP1R (hTone) [1] | EC50 [2] | GCGR EC50 human (cAMP activity assay) [3] | GLP1R EC50 human (cAMP activity assay) [4] |
| --- | --- | --- | --- | --- |
| CCCCCCCCCCCCCCCC(=O)N[C@@H](CCC(=O)N[C@@H](CCC(=O)NCCCC[C@H](NC(=O)[C@H](CC(=O)O)NC(=O)[C@H](CO)NC(=O)[C@@H](NC(=O)[C@H](Cc1ccccc1)NC(=O)[C@@H](NC(=O)CNC(=O)[C@H](CCC(N)=O)NC(=O)C(C)(C)NC(=O)[C@@H](N)Cc1c[nH]cn1)[C@@H](C)O)[C@@H](C)O)C(=O)N[C@@H](CO)C(=O)N[C@@H](CCCCN)C(=O)N[C@@H](Cc1ccc(O)cc1)C(=O)N[C@@H](CC(C)C)C(=O)N[C@@H](CC(=O)O)C(=O)NC(C)(C)C(=O)N[C@@H](CCCNC(=N)N)C(=O)N[C@@H](C)C(=O)N[C@@H](C)C(=O)N[C@@H](CCC(N)=O)C(=O)N[C@@H](CC(=O)O)C(=O)N[C@@H](Cc1ccccc1)C(=O)N[C@H](C(=O)N[C@@]1(C)CCCC=CCCC[C@@](C)(C(=O)N[C@H](C(=O)N[C@@H](CCCCN)C(=O)N[C@@H](CCC(N)=O)C(=O)O)[C@@H](C)O)NC(=O)[C@H](CCSC)NC(=O)[C@H](CC(C)C)NC(=O)[C@H](Cc2c[nH]c3ccccc23)NC1=O)C(C)C)C(=O)O)C(=O)O [compound 14] (H-H[Aib]QGTFTSDK([γGlu-γGlu-Palmitoyl])SKYLD[Aib]RAAQDFV[S5]WLM[S5]TKQ-OH; staple 24-28) | 35.14 | 0.13 nM |  |  |
| CC(C)C[C@@H]1NC(=O)[C@H](Cc2c[nH]c3ccccc23)NC(=O)[C@@H](NC(=O)[C@@H](NC(=O)[C@H](Cc2ccccc2)NC(=O)[C@H](CC(=O)O)NC(=O)[C@H](CCC(N)=O)NC(=O)[C@H](C)NC(=O)[C@H](C)NC(=O)[C@H](CCCNC(=N)N)NC(=O)C(C)(C)NC(=O)[C@H](CC(=O)O)NC(=O)[C@H](CC(C)C)NC(=O)[C@H](Cc2ccc(O)cc2)NC(=O)[C@H](CCCCN)NC(=O)[C@H](CO)NC(=O)[C@H](CCCCN)NC(=O)[C@H](CC(=O)O)NC(=O)[C@H](CO)NC(=O)[C@@H](NC(=O)[C@H](Cc2ccccc2)NC(=O)[C@@H](NC(=O)CNC(=O)[C@H](CCC(N)=O)NC(=O)C(C)(C)NC(=O)[C@@H](N)Cc2c[nH]cn2)[C@@H](C)O)[C@@H](C)O)C(C)C)CCCC=CCCC[C@@H](C(=O)N[C@H](C(=O)N[C@@H](CCCCN)C(=O)N[C@@H](CCC(N)=O)C(=O)O)[C@@H](C)O)NC(=O)[C@H](CC(C)C)NC1=O [compound 18] (H-H[Aib]QGTFTSDKSKYLD[Aib]RAAQDFV[Nle(6-ylidene)]WLL[Nle(6-ylidene)]TKQ-OH; staple 24-28) | 33.1 | 0.13 nM |  |  |
| HXQGTFTSDXSXYLDERAXQDFVQWLLDT (as printed: HsQGTFTSDK(γEγEC16)S*R6meYLDERA*S7meQDFVQWLLDT-NH2; s = D-Serine (position 2); Lys 10 conjugated to C16 fatty acid (-CO-(CH2)14-CH3) via γ-glutamic acid-γ-glutamic acid; *R6me (position 12) and *S7me (position 19) cyclized to form a double bond containing ring; C-terminal amide) [peptide of SEQ ID NO: 7 (TP397)] |  |  | 5 nM | 0.77 nM |
| HXQGTFTSDXSKYLDERAAXDFVXWLLDT (as printed in Table 1: HsQGTFTSDK(γEγEC16)SKYLDERAA*S5HDFV*S5HWLLDT-NH2 (Table 2 prints HSQ...); s = D-Serine (position 2); Lys 10 conjugated to C16 fatty acid via γEγE; two *S5H = (S)-2-aminohept-6-enoic acid (positions 20 and 24) cyclized to form a double bond containing ring; C-terminal amide) [peptide of SEQ ID NO: 15 (TP506)] |  |  | 0.67 nM | 1.5 nM |
| HXQGTFTSDXSKYLDEXAAQDFVXWLLDT (as printed: HsQGTFTSDK(γEγEC16)SKYLDE*R6meAAQDFV*S7meWLLDT-NH2; s = D-Serine (position 2); Lys 10 conjugated to C16 fatty acid via γEγE; *R6me (position 17) and *S7me (position 24) cyclized to form a double bond containing ring; C-terminal amide) [peptide of SEQ ID NO: 8 (TP398)] |  |  | 5 nM | 2.28 nM |
| H[dS]QGTFTSDKSKYLDE[R6me]AAQDFV[S7]WLLDT-NH2 (staple 17-24) [peptide of SEQ ID NO: 9 (TP398)] |  |  | 5 nM | 5 nM |

From US20230270825A1, “STAPLED OLEFIN CO-AGONISTS OF THE GLUCAGON AND GLP-1 RECEPTORS” (Merck Sharp & Dohme LLC, priority 2019, published 2023)
